The values below come from US20220162338A1 (SICHUAN KELUN BIOTECH BIOPHARMACEUTICAL, published 2022).

Numbering of substitutions follows the chain as printed. In names and notes the source's numbering stands.

Assay [1] addresses T1, human FXI (human coagulation Factor XI) (human, UniProt P03951 19-625).
T1 construct: Bought protein; Biotin-labeled form (HCXI-0150-B) was used in the hybridoma screen; also called FXI protein; FXI antigen
Kind of assay: BLI (Octet Fortebio), antibody on AHC (anti-human-Fc) sensor, FXI in solution.
Method: Octet Fortebio® was used for the affinity determination of chimeric and humanized antibodies. […] The data obtained were analyzed by Octet data analysis software.

Assay [2] has as its target T2, human FXIa (activated human coagulation Factor XI) (human, UniProt P03951 19-387; P03951 388-625). As to the kind of experiment: cell-based or functional assay.
The target of assay [3] is T3, human FXI antigen expressed in 293F cells (human, UniProt P03951 19-625, limits assumed).
T3 construct: also called FXI antigen (PMD-F11 plasmid cloned into PLVX-IRES-PURO, 293F)
Kind of assay: ELISA, FXI antigen (293F) coated at 1 µg/mL, HRP goat-anti-human detection.

The target in assay [4] is T2, human FXIa (activated human coagulation …). As to the kind of experiment: ELISA, FXIa coated at 1 µg/mL, HRP goat-anti-human detection.
The target is the same in assay [5]. Kind of assay: cell-based or functional assay. The source holds these as a separate data set.
For assay [6] the target is unchanged. As to the kind of experiment: cell-based or functional assay. The source holds these as a separate data set.
The target is the same in assay [7]. Kind of assay: BLI (Octet ForteBio), biotin-labeled antibody on streptavidin sensor, FXIa in solution, bivalent model.
Method: (§1) The specific experimental steps were as follows: the streptavidin biosensors was first bound with the biotin-labeled antibody to be tested to reach a response signal value of 0.8 nm, then bound with FXIa protein (3.2, 1.6, 0.8, 0.4, 0.2, 0.1, 0.05, and 0 μg/mL) for 5 minutes, then dissociation was performed for 7 minutes, and the bivalent analysis model was used for all fitting analysis.
Assay [8] shares this target. As to the kind of experiment: BLI (Octet ForteBio), ratio of KD against 14E11.
Method: as §1
The target is the same in assay [9]. As to the kind of experiment: BLI (Octet ForteBio), ratio of KD against BAY-1213790.
Method: as §1

B1: humanized antibody 36G9.10-hz73 (antibody, human IgG1, kappa, N297A, V domains shown)
VH: EVQLVQSGAEVKKPGATVKISCKASGFNIKDTYIHWVQQAPGKGLEWMGRIDPANDNTIYAEKFQGRVTITADTSTNTAYMELSSLRSEDTAVYYCAQDYDGFAMDYWGQGTLVTVSS
VL: DIQMTQSPSSLSASVGDRVTITCKASQDINKYITWFQQKPGKAPKLLIHYTSTLQPGVPSRFSGSGSGRDYTLTISSLQPEDFATYYCLQYDYLLTFGGGTKVEIKR
On to B1, for which, in assay [1], the Kd was 10.3 pM, the koff was determined as 6.51e-05 s⁻¹ and the kon turned out to be 6.31e+06 M⁻¹ s⁻¹. In addition, in [2], the “APTT in human plasma, fold prolongation” value was 2.2 times. In addition, the half-maximal effective concentration (EC50) in [3] came out at 9.68 ng/mL. The molecule also registered a concentration for a half-maximal effect (EC50) in assay [4] of 2.49 ng/mL. Moreover, in [5], the “APTT detection (EC50, nM), sample at 0 days” value is 18.4 nM; the “APTT detection (EC50, nM), sample stored at 25° C. for 28 days” value was 17.4 nM; the “APTT detection (EC50, nM), sample stored at 40° C. for 14 days” value amounted to 20.3 nM; the “APTT detection (EC50, nM), sample stored at 40° C. for 28 days” value was 26.9 nM. For the same molecule, the “IC50 value (ng/mL), inhibition of the catalytic effect of FXIa on fluorescent substrate I-1575” value in [6] stood at 26.2 ng/mL.

B2: humanized antibody 36G9.10-hz74 (antibody, human IgG1, kappa, N297A, V domains shown)
VH: B1 VH
VL: B1 VL with F36Y, H49Y, R69T, Y71F, L73F, F83I
Take B2: in assay [1], the Kd is 7.98 pM, the off-rate constant (koff) came out at 5.16e-05 s⁻¹ and the on-rate constant (kon) came to 6.47e+06 M⁻¹ s⁻¹.

B3: humanized antibody 36G9.10-hz92 (antibody, human IgG1, kappa, N297A, V domains shown)
VH: B1 VH with M48I, I59K, A61D, E62P
VL: B1 VL with R69T, Y71F
B3: in assay [1], the Kd came out at 15.2 pM, the off-rate (koff) turned out to be 7.69e-05 s⁻¹ and the on-rate (kon) was 5.07e+06 M⁻¹ s⁻¹.

B4: humanized antibody 36G9.10-hz93 (antibody, human IgG1, kappa, N297A, V domains shown)
VH: B1 VH with M48I, I59K, A61D, E62P
VL: B1 VL
In [1], B4 came in with a Kd of 8.81 pM, a dissociation rate constant (koff) of 5.34e-05 s⁻¹ and a kon of 6.06e+06 M⁻¹ s⁻¹.

B5: humanized antibody 36G9.10-hz43 (antibody, human IgG1, kappa, N297A, V domains shown)
VH: QVQLVQSGAEVKKPGASVKVSCKASGFNIKDTYIHWVRQAPGQGLEWIGRIDPANDNTNYAQKFQGRVTMTADTSINTAYMELSRLRSDDTAVYYCAQDYDGFAMDYWGQGTLVTVSS
VL: B1 VL
Take B5: in assay [1], the Kd is 44.1 pM, the koff was found to be 0.000255 s⁻¹ and the kon amounted to 5.77e+06 M⁻¹ s⁻¹.

B6: BAY-1213790 (antibody, V domains shown)
VH: EVQLLESGGGLVQPGGSLRLSCAASGFTFSQYGMDWVRQAPGKGLEWVSGIGPSGGSTVYADSVKGRFTISRDNSKNTLYLQMNSLRAEDTAVYYCTRGGPYYYYGMDVWGQGTTVTVSS
VL: DIQMTQSPSSLSASVGDRVTITCQASQDISNYLNWYQQKPGKAPKLLIYDASNLETGVPSRFSGSGSGTDFTFTISSLQPEDIATYYCQQADSFPVTFGGGTKVEIKR
In assay [1], B6 yielded a Kd of 374 pM, a koff of 0.00034 s⁻¹ and an on-rate (kon) of 910000 M⁻¹ s⁻¹. Further, in [7], the Kd turned out to be 1190 pM, the koff worked out at 0.00109 s⁻¹ and the kon amounted to 918000 M⁻¹ s⁻¹. In [4], this molecule registered a 50% effective concentration (EC50) of 6.16 ng/mL. For the same molecule, the “IC50 value (ng/mL), inhibition of the catalytic effect of FXIa on fluorescent substrate I-1575” value in [6] turned out to be 70 ng/mL.

B7: murine antibody 36G9.10 (antibody, mouse IgG1, V domains shown)
VH: EVQLQQSGAELVKPGASVKLSCTASGFNIKDTYIHWVKQRPEQGLEWIGRIDPANDNTKYDPKFQGKATITADTSSNTAYLQLSSLTSEDSAVYYCAQDYDGFAMDYWGQGTSVTVSS
VL: DIQMTQSPSSLSASLGGKVTITCKASQDINKYITWFQHKPGKGPRLLIHYTSTLQPGIPSRFSGSGSGRDYSFSISNLEPEDSATYYCLQYDYLLTFGGGTKLEIK
notes: also called 36G9.10 murine antibody; murine anti-human FXI/FXIa monoclonal antibody
Consider B7, for which, in assay [8], the “fold stronger affinity than 14E11” value came out at 1.7 times. In assay [7], this molecule gave a Kd of 480 pM, an off-rate constant (koff) of 0.00072 s⁻¹ and a kon of 1.5e+06 M⁻¹ s⁻¹. The “fold stronger affinity than BAY-1213790” value in assay [9] amounted to 2.5 times.

B8: chimeric antibody 36G9.10-hz00 (antibody, human IgG1, kappa, N297A, V domains shown)
VH: B7 VH
VL: DIQMTQSPSSLSASLGGKVTITCKASQDINKYITWFQHKPGKGPRLLIHYTSTLQPGIPSRFSGSGSGRDYSFSISNLEPEDSATYYCLQYDYLLTFGGGTKLEIKR
notes: Murine variable regions grafted to human IgG1 (N297A) and human kappa constant regions
In assay [1], B8 had a Kd of 3.66 pM, a koff of 2.39e-05 s⁻¹ and a kon of 6.52e+06 M⁻¹ s⁻¹.
